± gives the half width of the 95% confidence interval.
What was measured:
[1] = folding stability dG unfold (combined trypsin and chymotrypsin); higher = more stable
In short: (§1)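 Bayesian fitting of sequencing counts gave K50 for each design. Unfolding free energy followed by setting this against a sequence-predicted unfolded-state K50 and a shared folded-state K50, either per protease or with trypsin and chymotrypsin combined. The designs, under 80 residues and lacking cysteine, were digested in a PA-tagged cDNA display format at 11 threefold-diluted protease concentrations and without protease, and only those with AlphaFold2 dimer inter-PAE above 15 were kept.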

[2] = folding stability dG unfold from trypsin proteolysis; higher = more stable
In short: as §1

[3] = folding stability dG unfold from chymotrypsin proteolysis; higher = more stable
In short: as §1

| Sequence | folding stability dG unfold [1] [kcal/mol] | folding stability dG unfold [2] [kcal/mol] | folding stability dG unfold [3] [kcal/mol] |
| --- | --- | --- | --- |
| SAGGSKKPKKIIVIEIPENMTEEEIKKLAEELAKKLNIKKIVKIEKKKDGSVRIVLETKDGKKIEFSAGGSA [r2_168_TrROS_Hall] | 2.63 ± 0.16 | 2.3 ± 0.089 | 2.84 ± 0.035 |
| SAGGSKKTIELVIKDKKTNKWLKITIEYDEETGEVTVTIYDKNGEVVKEIKMSKDELKKLLEKLGFSAGGSA [r2_115_TrROS_Hall] | 4.28 ± 0.36 | 3.02 ± 0.22 | 4.37 ± 0.16 |
| SAGGSKKTYIVDSPEEIAKLIESIPEEEYVFAIKGRPDGKPVVEIYSKENIEEAIKENPEIIIPVGSAGGSA [r2_351_TrMRF] | 0.479 ± 0.11 | 0.287 ± 0.058 | 0.641 ± 0.068 |
| SAGGSKKVPIKVKIEVYNKNGEKMTLEELLKKLEENAKVEKDEKGRLTLYIVNKKTNKIVKIEVEKSAGGSA [r2_234_TrROS_Hall] | 1.72 ± 0.27 | 1.74 ± 0.18 | 1.92 ± 0.19 |
| SAGGSKLTVEEIKKLFPNVEVTKKEDGTYEMRVTVEVTLPNGEKKKVEVTVKVEVKDGKIVKVEVTSAGGSA [r2_104_TrROS_Hall] | 2.9 ± 0.12 | 2.44 ± 0.15 | 3.17 ± 0.092 |
| SAGGSKMEPGPVKIKVTDGGEEHTFDFQVSVMPDPDGRPMIMFSFPDGNPLSIPLDDAEKITDIEVSAGGSA [r2_297_TrROS] | 0.106 ± 0.18 | 0.322 ± 0.11 | -0.141 ± 0.29 |
| SAGGSKPIRVEIAVPPDVPLEELARRVEEELRELGFEVEVEEVSFLPEEGRVLLRFRDGAVAVIPNSAGGSA [r2_242_TrMRF] | 1.86 ± 0.068 | 1.8 ± 0.022 | 1.85 ± 0.062 |
| SAGGSKPTVTLELYIEVPEEELSEEEIKKLLEELAKELNLEVEVTVEVEEKDGKLIVKVTVTIKKPSAGGSA [r2_172_TrROS_Hall] | 2.25 ± 0.25 | 2.15 ± 0.19 | 2.28 ± 0.14 |
| SAGGSKPVYKVKIEIEFNGKKIEIEIEAETEEEAKKAVEELLKKLFEENKDNLKIKVEVEKLPEKPSAGGSA [r2_111_TrROS_Hall] | 3.11 ± 0.12 | 2.95 ± 0.15 | 3.15 ± 0.2 |
| SAGGSKSKIISASVFTTPDGEKVGVIKVLVKDPNGNPHLVIATIYSDGKIKVSVYYNGKVYTFEFDSAGGSA [r2_182_TrMRF] | 3.52 ± 0.12 | 2.41 ± 0.079 | 3.95 ± 0.037 |
| SAGGSKTIVIDPEKVVKVEVKKNENGEKEIRIVVKNKDGEEKEVTIKPGEKLELPPKVEVVVLPEKSAGGSA [r2_347_TrROS_Hall] | 0.965 ± 0.19 | -0.517 ± 0.28 | 1.39 ± 0.18 |
| SAGGSKTLIIKIEKIEEFYPPFNNDKIKIPVSVYDPETGEKVLSNEEVAKILEKLFPGIKIGWEEGSAGGSA [r2_27_TrMRF] | 0.937 ± 0.06 | 1.06 ± 0.032 | 0.719 ± 0.036 |
| SAGGSLDVKIEITPPDGSTRTLDIEVESEEEAIKIAEELQKELGEGNTLKVRITYPGPKSPVELELKSAGGS [r8_107_JUSTAS] | 2.2 ± 0.065 | 1.53 ± 0.04 | 2.51 ± 0.046 |
| SAGGSLEEVARALARELGLPDVEVRDIPVEVLPNGTVRIPVTIVRPEAGEPLPPLEVELAPDEPLLSAGGSA [r2_137_JUSTAS] | -0.198 ± 0.14 | -0.0103 ± 0.14 | -0.236 ± 0.15 |
| SAGGSLKIRTVLRLPSPDGTPYLVFSKEAVIHPVPNIVHINLLVPDKEITLTVPLNEVELLGSPEEVLSSAG [r5_15_TrMRF] | 2.65 ± 0.097 | 2.13 ± 0.048 | 2.81 ± 0.029 |
| SAGGSLRGVLFDPEGGRVYVLEYDPALGSFRVRPFPVPPVLPISREAAAEILRRELGLPREVVERLLASAGG [r13_824_TrMRF] | 3.15 ± 0.093 | 2.58 ± 0.082 | 3.438 ± 0.033 |
| SAGGSMADPGKAKAKVVIGGVEFEFDTTVTVADDPDGRKVLIFTFPDGTPVEIPLEDAEKILEVEGSAGGSA [r2_297_TrMRF] | 1.43 ± 0.067 | 0.996 ± 0.024 | 1.66 ± 0.03 |
| SAGGSMELKPGDSIEFPENIPLDEIIELAKKIAEEFNFEGIEDIENPSEGFYRIRAITPDGRPIEISAGGSA [r2_168_TrMRF] | 0.0617 ± 0.18 | -0.147 ± 0.23 | 0.141 ± 0.18 |

| Sequence | folding stability dG unfold [1] [kcal/mol] | folding stability dG unfold [2] [kcal/mol] | folding stability dG unfold [3] [kcal/mol] |
| --- | --- | --- | --- |
| SAGGSMELYTKSPDGKLFKVKIVNPGNAKDKVLFEAEVFDPKNNKPIGRFTGVVDPKTGKIISIKPSAGGSA [r2_324_TrMRF] | 1.64 ± 0.13 | 1.6 ± 0.035 | 1.68 ± 0.083 |
| SAGGSMEVEEFETTDPATGKPYRLRFTYDSETGIPVLEVFAPDGTPLATVPVEPGEAEAARERLGASAGGSA [r2_115_JUSTAS] | 0.767 ± 0.058 | 0.0239 ± 0.063 | 1.14 ± 0.085 |
| SAGGSMEVKVVSYDEEKGVLVIEVDEDETVEELVERLRSIPGLKVEVEVVEKDGKLYVVIRVEKKESAGGSA [r2_44_TrROS_Hall] | 3.98 ± 0.18 | 3.17 ± 0.13 | 4.27 ± 0.09 |
| SAGGSMEVVVTFPDGSKEVIPEEPLKKLAEELGIPWDEEDPEAQWEAIARALAEKTGKPVEKVEIASAGGSA [r2_83_TrMRF] | 2.09 ± 0.093 | 1.97 ± 0.072 | 2.24 ± 0.17 |
| SAGGSMFKVEEVETLENGEVLAKLTVYLDGKPYPATARIYTLPDGRKVAEIYFPDNPNVSLRIPLTSAGGSA [r2_376_TrMRF] | 4.1 ± 0.053 | 3.91 ± 0.059 | 4.14 ± 0.024 |
| SAGGSMKFSATVEYDPANNIYTVTVPITRKDTGEVIPVSVPVPGSDLTTAEQLAEEIAEKLEKEGLSAGGSA [r2_221_JUSTAS] | 0.621 ± 0.19 | 0.627 ± 0.092 | 0.518 ± 0.14 |
| SAGGSMKITVTVSYSELKEKYPDLTEEELKELAEEIAKEKKKEIIEGNPDISENTEIEVKIEKPAVIESAGG [r13_634_JUSTAS] | 1.84 ± 0.12 | 0.76 ± 0.11 | 2.27 ± 0.052 |
| SAGGSMKVFVFEVKVEVEVKLDKDGNLTVEIKKVEVKPVKKIPLSEEELEKLREAKKKGLTLEEILSAGGSA [r2_327_TrROS_Hall] | 2.78 ± 0.18 | 2.07 ± 0.11 | 3.26 ± 0.1 |
| SAGGSMKVYEFKSLEEIKKAIENLPPNEKYIVIKKNKNGKLEIIIVSKEEEEELKKKGVDFIIKVKSAGGSA [r2_351_TrROS_Hall] | 1.95 ± 0.43 | 0.788 ± 0.089 | 2.21 ± 0.07 |
| SAGGSMLEKEEGDTLVKTVLQPVPEDLSREVLVTTTTKLLPNGSEVTVTVRSPFTGEPLSSSVVLSSAGGSA [r2_412_JUSTAS] | 0.602 ± 0.066 | 0.458 ± 0.054 | 0.635 ± 0.13 |
| SAGGSMLSTEPKETDDEIKVTKIYYPEEPIEVTLTTDPDTDLVTATSPSSTATIDAKTGKTTTTPSSSSAGG [r13_416_JUSTAS] | 0.545 ± 0.14 | -0.285 ± 0.1 | 0.876 ± 0.039 |
| SAGGSMMKVTIVDKDGKERVFTFPKDMTEEEVLERIKKELEAEGVEVEEVEVERREDGSLVIRVKKSAGGSA [r2_148_TrROS_Hall] | 3.93 ± 0.14 | 4.16 ± 0.4 | 3.71 ± 0.064 |
| SAGGSMPFRPLDVKVTVERLPDGTIRITTTLRQPDSPAAVTTEVKEVPLAELVKKRGRPVTAEDLLSAGGSA [r2_180_JUSTAS] | 0.858 ± 0.19 | 0.132 ± 0.12 | 1.21 ± 0.096 |
| SAGGSMPPETEVTVTVEEFEEDPSRRLRVTITTPDGTVVTTDLENPGELSPEEEARIAALAAALAASAGGSA [r2_17_JUSTAS] | 1.58 ± 0.055 | 0.486 ± 0.026 | 1.96 ± 0.027 |
| SAGGSMPVEIKLLEEEVLPDGVTIKKVKAEDGSEMTVTVTKLPGNTYKVTITNPANGTTSTFTLPESAGGSA [r2_361_JUSTAS] | 1.45 ± 0.077 | 0.932 ± 0.035 | 1.73 ± 0.055 |
| SAGGSMRITKIEIEPNPNGDYKITITMTENGHITVEVMNPNGKPKEVEVNMPNGDPEEVVKEAIKASAGGSA [r2_298_TrROS] | 1.63 ± 0.083 | 0.686 ± 0.041 | 2.25 ± 0.1 |
| SAGGSMRLVERTFVPVKTFTFLSTFNLIQPPGVPVPTFTTLTVVFTPVFTRLVEVVTEPPGRVVEVLLSAGG [r13_148_JUSTAS] | 4.06 ± 0.21 | 3.73 ± 0.15 | 4.33 ± 0.13 |
| SAGGSMSLEEIKKLEIELEKEEGEKLKAEVTVLPDGKLFVRVNGKLFEIDLKTGKIVEVKELPPDESAGGSA [r2_374_TrROS_Hall] | 2.47 ± 0.21 | 2.49 ± 0.19 | 2.38 ± 0.057 |
